Data reported in US20020082384A1, “Process for folding chemically synthesized polypeptides” (priority 2000, published 2002).

B1: synthetic TARC: 71-residue human thymus and activation regulated chemokine, chemically synthesized as Cys10,11,34,50(S-t-Bu) derivative and folded with cysteine (peptide, UniProt Q92583 24-94, looked up)
C-C motif chemokine 17: ARGTNVGRECCLEYFKGAIPLRKLKTWYQTSEDCSRDAIVFVTVQGRAICSDPNNKRVKNAVKYLQSLERS
B2: recombinant TARC: recombinant thymus and activation regulated chemokine used as comparator (protein, UniProt Q92583 24-94, looked up)
C-C motif chemokine 17: B1 C-C motif chemokine 17
B3: synthetic, folded, hu-I-309: human chemokine I-309, chemically synthesized with 6 S-t-Bu protected cysteines and folded with cysteine (peptide, UniProt P22362 24-96, looked up)
C-C motif chemokine 1: KSMQVPFSRCCFSFAEQEIPLRAILCYRNTSSICSNEGLIFKLKRGKEACALDTVGWVQRHRKMLRHCPSKRK

Key:
fresh monocytes = assay: Migration across a polycarbonate filter in response to TARC (Imai method), monocytes; assay type: cell-based, human
Protocol: (§1) The biological activity of hu-TARC obtained by the methodology of the present invention was performed according to the Imai method (T. Imai et al., J. Biol. Chem., 271, 21514, 1996).
(§2) Human T cell lines, Hut78, Hut 102, and Jurkat, as well as fresh monocytes, neutrophils and lymphocytes were assessed for their migration across a polycarbonate filter in response to TARC.

neutrophils = assay: Migration across a polycarbonate filter in response to TARC (Imai method), neutrophils; assay type: cell-based, human
Protocol: as §1, §2

human lymphocytes = assay: Binding of 125I-labelled chemokine to human lymphocytes; settings: binding of 125I-labelled chemokine to human lymphocytes (FIG. 6)
Protocol: FIG. 6 is a graph of the comparison between the biological activity of recombinant I-309 and the synthetic, folded I-309 of the present invention. Biological activity was asses-sed by binding the chemokine, labelled with ^125I, to human lymphocytes.
Folding of the chemokine derivative purified byRP-HPLC was carried out by dissolving 65 mg of product in 60 ml of 0.6 M GuHCl, 10 mM NaHPO4 and 1 mM Tris at pH 8.0 and adding cysteine at a concentration of 100 fold molar excess with respect to the peptide. The polypeptide solution was left at 37° C. for 4 days. Complete cysteine pairing was checked by mass spectrometry after reaction with N-ethyhnaleimide (NEM). The yield of final folded chemokine was almost 25%.

| Molecule | chemotactic response (fresh monocytes) | chemotactic response (neutrophils) | biological activity compared with recombinant I-309 (human lymphocytes) |
| --- | --- | --- | --- |
| B1 | No chemotactic response | No chemotactic response |  |
| B2 | No chemotactic response | No chemotactic response |  |
| B3 |  |  | equivalent to recombinant protein |
